Changes are numbered by the printed parent chain. Names and notes keep the numbering of the source.

Experimental findings from publication PMC9052748, “The Di-Iron Protein YtfE Is a Nitric Oxide-Generating Nitrite Reductase Involved in the Management of Nitrosative Stress” (Journal of the American Chemical Society, 2022) are described below.

One series addresses T1, YtfE (Escherichia coli, UniProt P69506).
T1 construct: C-terminal His tag (pGS2618, pET24a derivative), expressed in E. coli BL21 (DE3)-T1R, purified anaerobically; di-iron holo form, 26,154 Da, monomer
Put plainly: initial rates of DTT-mediated reduction of air-exposed YtfE (A340 nm), binding isotherm. Particulars: air-exposed (oxidized) YtfE ~90 μM; DTT 0 to 80 mM; reductant; apparent value from rates. In kind it is biochemical. The text has this: initial rates of DTT-mediated reduction of air-exposed YtfE (A340 nm), binding isotherm on YtfE | fitted using a simple binding isotherm, from which a Kd was obtained

Substrate in the series “purified protein”: O=NO
Put plainly: purified protein. The format is biochemical, Escherichia coli. Particulars: di-ferrous YtfE 10 μM, reductant dithionite-reduced methyl viologen 58 μM, pH 7.5, 100 mM Tris, anaerobic.

For the molecule `OC(CS)C(O)CS` (stereo not drawn) [DTT], on YtfE, the Kd turned out to be 7.3 mM.

B1: YtfE (Escherichia coli K-12) (protein)
chain: MAYRDQPLGELALSIPRASALFRKYDMDYCCGGKQTLARAAARKELDVEVIEAELAKLAEQPIEKDWRSAPLAEIIDHIIVRYHDRHREQLPELILQATKVERVHADKPSVPKGLTKYLTMLHEELSSHMMKEEQILFPMIKQGMGSQAMGPISVMESEHDEAGELLEVIKHTTNNVTPPPEACTTWKAMYNGINELIDDLMDHISLENNVLFPRALAGE
notes: C-terminal His tag (pGS2618, pET24a derivative), expressed in E. coli BL21 (DE3)-T1R, purified anaerobically; di-iron holo form, 26,154 Da, monomer
Take B1: in “purified protein”, the Km is listed as 252 (± 32) μM; the Vmax (commonly the top rate of the reaction or transport when substrate is in excess) was 1.33 µmol/min/mg; the kcat (usually the number of substrate molecules converted per active site and unit of time at saturation) came out at 0.58 ± 0.0265 s⁻¹; the kcat/Km – broadly, the turnover number divided by the Michaelis constant – is 2300 ± 105 M⁻¹ s⁻¹.

B2: YtfE (Escherichia coli K-12; C30A/C31A) (protein)
chain: B1 chain with C30A, C31A
notes: as for B1
Consider B2, for which, in “purified protein”, the Km is 288 (± 29) μM, the Vmax amounted to 1.59 µmol/min/mg, the kcat is 0.693 ± 0.0263 s⁻¹ and the kcat/Km is 2410 ± 91.7 M⁻¹ s⁻¹.
